# Reference: US20210317213A1 (AMBRX, published 2021)
# Legend:
# human CD3 [1] = molecular target: T1, human CD3 (human, UniProt P07766 23-207); assay: cell binding, activated human PBMC; E. coli protein
# T1 construct: whole, on cells; also called CD3 on human T-cells
# cyno CD3 [2] = molecular target: T2, cyno CD3 (cyno (cynomolgus monkey), UniProt Q95LI5 22-198); assay: cell binding, activated cyno PBMC; E. coli protein
# T2 construct: whole, on cells; also called CD3 on Cynomolgus T-cells
# cyno CD3 [3] = molecular target: T2, cyno CD3; assay: cell binding, cyno CD3 (activated cyno PBMC); cyno CD3 (second number of the cell)
# Experimental: (§1) Testing for CD3 binding with activated human and cyno PBMC: To distinguish between the humanized anti-CD3 antibodies generated, binding to human CD3 was tested using activated human PBMCs (n=2). The activation of PBMCs and subsequent fluorescence-based CD3 binding assays were followed as described previously (see for example, Angew Chem Int Ed Engl, 52(46):12101-12104, 2013). […] The binding of the remaining 6 humanized antibodies to both human and cyno CD3 using activated human and cyno PBMCs, respectively, was titrated. […] The six (6) humanized anti-CD3 antibodies were obtained as follows: Fab1, Fab2 and Fab3 wildtype were generated by combination of LC ((vL1.2+CL); (SEQ.ID. NO:7)) and HC ((vH1.2+CH1); (SEQ.ID. NO:1)), ((vH1.1+CH1); (SEQ.ID. NO:2)) and ((vH1.0+CH1); (SEQ.ID. NO:3)) respectively. Fab4, Fab 5 and Fab6 wildtype were generated by combination of LC ((vL1.1+CL); (SEQ.ID. NO:8)) and HC ((vH1.2+CH1); (SEQ.ID. NO:1)), ((vH1.1+CH1); (SEQ.ID. NO:2)) and ((vH1.0+CH1); (SEQ.ID. NO:3)) respectively.
# (§2) Binding of Folate-conjugated Fabs to human and cyno CD3: Binding of E. coli produced and Folate-conjugated low-affinity variants of humanized anti-CD3 Fabs was performed as described in the above Examples.
# human CD3 [4] = molecular target: T1, human CD3; assay: cell binding, human CD3 (activated human PBMC); human CD3 (first number of the cell)
# Experimental: as §1, §2
# human CD3 [5] = molecular target: T1, human CD3; assay: cell binding, human T-cells; parameters: Bmax: unit not given here
# human CD3 [6] = molecular target: T1, human CD3; assay: cell binding, human CD3, 50 nM SFA present
# cyno CD3 [7] = molecular target: T2, cyno CD3; assay: cell binding, cynomolgus T-cells
# T1 sequence (P07766 23-207): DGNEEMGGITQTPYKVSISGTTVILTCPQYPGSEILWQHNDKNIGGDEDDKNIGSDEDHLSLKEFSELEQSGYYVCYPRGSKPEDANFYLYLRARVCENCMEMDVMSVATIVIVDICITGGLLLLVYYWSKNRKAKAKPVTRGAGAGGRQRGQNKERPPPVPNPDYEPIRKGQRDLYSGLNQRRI
# T2 sequence (Q95LI5 22-198): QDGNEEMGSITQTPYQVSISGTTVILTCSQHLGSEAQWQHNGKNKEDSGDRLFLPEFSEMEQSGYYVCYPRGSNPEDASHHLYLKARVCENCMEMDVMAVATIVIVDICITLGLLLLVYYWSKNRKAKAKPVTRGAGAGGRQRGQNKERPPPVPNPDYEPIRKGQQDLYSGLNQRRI
Binder,EC50 (human CD3 [1]),EC50 (cyno CD3 [2]),EC50 (cyno CD3 [3]),EC50 (human CD3 [4]),other results
"Fab1-HA114-Folate (Fab, V domains shown, pAF at HA114 (Kabat) conjugated to folate (oxime), From E. coli; Fab-folate conjugate) VH: EVQLVESGGGLVQPGGSLRLSCAASGFTFNTYAMNWVRQAPGKGLEWVARIRSKYNNYATYYADSVKDRFTISRDDSKNILYLQMNSLKTEDTAVYYCVRHGNFGNSYVSWFAYWGQGTLVTVSS VL: QAVVTQEPSLTVSPGGTVTLTCRSSTGAVTTSNYANWVQQKPGQAPRGLIGGTNKRAPGTPARFSGSLLGGKAALTLSGAQPEDEAEYYCALWYSNLWVFGGGTKLTVLG",1.27 nM,1.37 nM,,,
"Fab10-HK129-Folate (Fab, V domains shown, pAF at HK129 (Kabat) conjugated to folate (oxime), also called Fab10 (E. coli, folate-conjugated)) VH: EVQLVESGGGLVQPGGSLRLSCAASGFTFSTYAMNWVRQAPGKGLEWVARIRSKYNNYATYYADSVKDRFTISRDDSKNILYLQMNSLKTEDTAVYYCVRHGNFGNSYVSWFAYWGQGTLVTVSS VL: QAVVTQEPSLTVSPGGTVTLTCRSSTGAVTTSNYANWFQQKPGQAPRGLIGGTNKRAPGVPARFSGSLLGGKAALTLSGAQPEDEAEYYCALWYSNLWVFGGGTKLTVLG",,,99.5 nM,83.6 nM,
"Fab1-HS115-pAF1 (Fab, V domains shown, para-acetyl-phenylalanine (pAF) at HS115 (Kabat), From E. coli; also called Fab1 HS115pAF, unconjugated) VH: EVQLVESGGGLVQPGGSLRLSCAASGFTFNTYAMNWVRQAPGKGLEWVARIRSKYNNYATYYADSVKDRFTISRDDSKNILYLQMNSLKTEDTAVYYCVRHGNFGNSYVSWFAYWGQGTLVTVSS VL: QAVVTQEPSLTVSPGGTVTLTCRSSTGAVTTSNYANWVQQKPGQAPRGLIGGTNKRAPGTPARFSGSLLGGKAALTLSGAQPEDEAEYYCALWYSNLWVFGGGTKLTVLG",1.26 nM,1.76 nM,,,
"Fab1-HK129-pAF (Fab, V domains shown, para-acetyl-phenylalanine (pAF) at HK129 (Kabat), From E. coli; carries no folate and no PEG; also called Fab1-HK129-pAF1; anti-CD3 Fab1-HK129-pAF control) VH: EVQLVESGGGLVQPGGSLRLSCAASGFTFNTYAMNWVRQAPGKGLEWVARIRSKYNNYATYYADSVKDRFTISRDDSKNILYLQMNSLKTEDTAVYYCVRHGNFGNSYVSWFAYWGQGTLVTVSS VL: QAVVTQEPSLTVSPGGTVTLTCRSSTGAVTTSNYANWVQQKPGQAPRGLIGGTNKRAPGTPARFSGSLLGGKAALTLSGAQPEDEAEYYCALWYSNLWVFGGGTKLTVLG",1.14 nM,1.15 nM,,,Bmax (human CD3 [5]): 32000; Kd (human CD3 [5]): 1.59 nM; EC50 (human CD3 [6]): 1.92 nM; Bmax (cyno CD3 [7]): 26600; Kd (cyno CD3 [7]): 2.67 nM
"Fab1-HK129-LL157-pAF (Fab, V domains shown, pAF at LL157 (Kabat); pAF at HK129 (Kabat), From E. coli; double pAF variant, unconjugated; also called Fab1-HK129pAF-LL157pAF) VH: EVQLVESGGGLVQPGGSLRLSCAASGFTFNTYAMNWVRQAPGKGLEWVARIRSKYNNYATYYADSVKDRFTISRDDSKNILYLQMNSLKTEDTAVYYCVRHGNFGNSYVSWFAYWGQGTLVTVSS VL: QAVVTQEPSLTVSPGGTVTLTCRSSTGAVTTSNYANWVQQKPGQAPRGLIGGTNKRAPGTPARFSGSLLGGKAALTLSGAQPEDEAEYYCALWYSNLWVFGGGTKLTVLG",,,,,Bmax (human CD3 [5]): 27900; Kd (human CD3 [5]): 0.604 nM; Bmax (cyno CD3 [7]): 23400; Kd (cyno CD3 [7]): 0.955 nM
"Fab9-HK129-Folate (Fab, V domains shown, pAF at HK129 (Kabat) conjugated to folate (oxime), also called Fab9 (E. coli, folate-conjugated)) VH: EVQLVESGGGLVQPGGSLRLSCAASGFTFNTYAMNWVRQAPGKGLEWVGRIRSKYNNYATYYADSVKDRFTISRDDSKNSLYLQMNSLKTEDTAVYYCVRHGNFGNSYVSWFAYWGQGTLVTVSS VL: QAVVTQEPSLTVSPGGTVTLTCRSSTGAVTTSNYANWFQQKPGQAPRGLIGGTNKRAPGVPARFSGSLLGGKAALTLSGAQPEDEAEYYCALWYSNLWVFGGGTKLTVLG",,,93.1 nM,69.1 nM,
"Fab7-HK129-Folate (Fab, V domains shown, pAF at HK129 (Kabat) conjugated to folate (oxime), also called Fab7 (E. coli, folate-conjugated)) VH: EVQLVESGGGLVQPGGSLRLSCAASGFTFNTYAMNWVRQAPGKGLEWVARIRSKYNNYATYYADSVKDRFTISRDDSKNILYLQMNSLKTEDTAVYYCARHGNFGNSYVSWFAYWGQGTLVTVSS VL: QAVVTQEPSLTVSPGGTVTLTCRSSTGAVTTSNYANWVQQKPGQAPRGLIGGTNKRAPWVPARFSGSLLGGKAALTLSGAQPEDEAEYYCALWYSNLWVFGGGTKLTVLG",,,20.2 nM,23.4 nM,
